Patent US20230044467A1

How the values were obtained:
[1] = target: Nα,Nε-diacetyl-L-Lys-D-Ala-D-Ala tripeptide; experiment: ITC, tripeptide injected into 10 uM glycopeptide, 25 C, one-site model
[2] = target: Nα,Nε-diacetyl-L-Lys-D-Ala-D-Ala tripeptide; experiment: ITC, 25 C, one-site model

## keratinimicin A (peptide)
[1]
  Kd: 1700 nM
[2]
  TΔS: 0.85 kcal/mol
  ΔG: -7.9 kcal/mol
  ΔH: -7 kcal/mol

## keratinimicin C (peptide)
[1]
  Kd: 2800 nM
[2]
  TΔS: 0.2 kcal/mol
  ΔG: -7.6 kcal/mol
  ΔH: -7.4 kcal/mol

## vancomycin (peptide)
[1]
  Kd: 2700 nM
[2]
  TΔS: -0.96 kcal/mol
  ΔG: -7.6 kcal/mol
  ΔH: -8.6 kcal/mol
